Measurements reported in paper PMC3679732, “Cloning and characterization of bifunctional enzyme farnesyl diphosphate/geranylgeranyl diphosphate synthase from Plasmodium falciparum” (Malaria Journal, 2013).

Assays:
Experiment in all cases: purified protein
Format in all cases: biochemical, Plasmodium falciparum
purified protein [1] = substrate: C=C(C)CCO[P@@](=O)(O)OP(=O)(O)O; conditions: Mg2+ ([…] MgCl2 in assay) second substrate
purified protein [2] = substrate: CC(C)=CCC/C(C)=C/CC/C(C)=C/CO[P@@](=O)(O)OP(=O)(O)O; conditions: Mg2+ ([…] MgCl2 in assay) allylic substrate; DMAPP, GPP, and FPP all compete for binding to the free enzyme active site
purified protein [3] = substrate: CC(C)=CCC/C(C)=C/COP(=O)(O)OP(=O)(O)O; conditions: Mg2+ ([…] MgCl2 in assay) allylic substrate; DMAPP, GPP, and FPP all compete for binding to the free enzyme active site
purified protein [4] = substrate: CC(C)=CCOP(=O)(O)OP(=O)(O)O; conditions: Mg2+ ([…] MgCl2 in assay) allylic substrate; DMAPP, GPP, and FPP all compete for binding to the free enzyme active site

B1: farnesyl diphosphate/geranylgeranyl diphosphate synthase (rPfFPPS) (Plasmodium falciparum 3D7) (protein)
chain: MENEQNNQDSENGLDYFRSMYDRYRDVFINHINDYVLEDDIKIIISKYYKLLFDYNCLGGKNNRGILVILIYEYVKNRDINCNEWEKVACIAWCIEILQASFLVADDIMDKGETRRNKHCWYLLKDVEIKNAVNDVFLLYNAIYKLLDVYLRNDNCYLDLITSFREATLKTIVGQHLDTNIFSDKYSHIDKDIDVNNINISQENKININMLNFKVYQNIIIHKTAYYSFFLPIVCGMQMGGISLDNLLYKKVENIAILMGEYFQVHDDYIDTFGDSKKTGKVGSDIQNNKLTWPLIKAFELCSQPEKEDIIRNYGKDNVTCIKFINDIYEHYNIRDHYVEYEKKQKMKILEAINQLHHEGIEYVLKYVMDILFTGA
notes: full length protein expressed as a GST fusion protein
Purified protein [1]
  Km: 2.4 ± 0.3 µM
  Vmax: 0.156 µmol/min/mg
Purified protein [2]
  Km: 2.06 ± 0.4 µM
  Vmax: 0.327 µmol/min/mg
Purified protein [3]
  Km: 7.8 ± 1.3 µM
  Vmax: 0.341 µmol/min/mg
Purified protein [4]
  Km: 68 ± 5 µM
  Vmax: 0.453 µmol/min/mg
